Test results as given in patent US11155602B2, “Polypeptides targeting HIV fusion” (priority 2015, dated 2021).

Tested on: NL-Rluc virus
Experiment: Combinectin potency assay: antiviral EC50, NL-Rluc virus in MT-2 cells, luciferase readout
Format: cell-based, HIV-1
Settings: Anti-N17 Adnectin, Table 3
In short: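 MT-2 cells infected with replication-competent NL-Rluc HIV (nef replaced by Renilla luciferase) at MOI 0.01 for 1 h, then added to threefold-diluted peptides (11 concentrations, triplicate). After 4–5 days, luciferase measured by Dual Luciferase; EC50 relative to no-peptide wells.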

| Molecule | EC50 |
| --- | --- |
| 321 (protein, not fully specified) MGHHHHHHGGSVSDVPRDLEVVAATPTSLLISWEYKVHPYRYYRITYGETGGNSPVQEFTVPSVLSSAXLSGLKPGVDYTITVYAVTYGDDSAPISINYRTEID | 55 nM |
| 134 (protein, Adnectin) MGHHHHHHGGSVSDVPRDLEVVAATPTSLLISWDAPAVTVEQYYIAYYDEKEPSSYQYFRVPGSKSTATISGLKPGVEYAIFVNAVTRSGVLPEFSLPISINYRTEGS | 5 nM |
| 136 (protein, Adnectin) MGHHHHHHGGSVSDVPRDLEVVAATPTSLLISWDAPAVTVEQYYIGYYVEAEPSSYQYFFVPGSKSTATISGLKPGVDYAIFVNAVTASGRGPEYSLPISINYRTEGS | 5 nM |
| 322 (protein, Adnectin) MGHHHHHHGGSVSDVPRDLEVVAATPTSLLISWEYKVHPYRYYRITYGETGGNSPVQEFTVPSVLSTATISGLKPGVDYTITVYAVTYGTDSAPISINYRTEID | 96 nM |
| 334 (protein, Adnectin) MGHHHHHHGGSVSDVPRDLEVVAATPTSLLISWEYKVTYRRYYRITYGETGGNSPVQEFTVPSVLSTATISGLKPGVDYTITVYAVTYGDDSAPISINYRTEID | > 1000 nM |
| 337 (protein, Adnectin) MGHHHHHHGGSVSDVPRDLEVVAATPTSLLISWEYKVHPYRYYRITYGETGGNSPVQEFTVPSVLSTATISGLKPGVDYTITVYAVTYGDDSYPISINYRTEID | > 1000 nM |
| 344 (protein, Adnectin) MGHHHHHHGGSVSDVPRDLEVVAATPTSLLISWEYKVHPYRYYRITYGETGGNSPVQEFTVPSVLSTATISGLKPGVDYTITVYAVTYGDDSEPISINYRTEID | > 1000 nM |
| 339 (protein, Adnectin) MGHHHHHHGGSVSDVPRDLEVVAATPTSLLISWEYKVSRWRYYRITYGETGGNSPVQEFTVPSVLSTATISGLKPGVDYTITVYAVTYGDDSAPISINYRTEID | > 1000 nM |
| 338 (protein, Adnectin) MGHHHHHHGGSVSDVPRDLEVVAATPTSLLISWEYKVNRYRYYRITYGETGGNSPVQEFTVPSVLSTATISGLKPGVDYTITVYAVTYGDDSAPISINYRTEID | > 1000 nM |
| 327 (protein, Adnectin) MGHHHHHHGGSVSDVPRDLEVVAATPTSLLISWEYKVTYERYYRITYGETGGNSPVQEFTVPSVLSTATISGLKPGVDYTITVYAVTYGDDSAPISINYRTEID | > 1000 nM |
| 345 (protein, Adnectin) MGHHHHHHGGSVSDVPRDLEVVAATPTSLLISWEYKVHPYRYYRITYGETGGNSPVQEFTVPSVLSTATISGLKPGVDYTITVYAVTYGDDSRPISINYRTEID | > 1000 nM |
| 333 (protein, Adnectin) MGHHHHHHGGSVSDVPRDLEVVAATPTSLLISWEYKVSPWRYYRITYGETGGNSPVQEFTVPSVLSTATISGLKPGVDYTITVYAVTYGDDSAPISINYRTEID | > 1000 nM |
| 330 (protein, Adnectin) MGHHHHHHGGSVSDVPRDLEVVAATPTSLLISWEYKVHPYRYYRITYGETGGNSPVQEFTVPSVLSTATISGLKPGVDYTITVYAVTYGDDSPPISINYRTEID | 99 nM |
| 325 (protein, Adnectin) MGHHHHHHGGSVSDVPRDLEVVAATPTSLLISWEYKVNHDRYYRITYGETGGNSPVQEFTVPSVLSTATISGLKPGVDYTITVYAVTYGDDSAPISINYRTEID | > 1000 nM |
| 329 (protein, Adnectin) MGHHHHHHGGSVSDVPRDLEVVAATPTSLLISWEYKVHPYRYYRITYGETGGNSPVQEFTVPSVLSTATISGLKPGVDYTITVYAVTYGDVSAPISINYRTEID | 102 nM |
| 135 (protein, Adnectin) MGHHHHHHGGSVSDVPRDLEVVAATPTSLLISWKYNVNAYRYYRITYGETGGNSPVQEFTVPSVLSTATISGLKPGVDYTITVYAVTYGVHSSPISINYRTEID | > 1000 nM |
| 324 (protein, Adnectin) MGHHHHHHGGSVSDVPRDLEVVAATPTSLLISWEYKVHPYRYYRITYGETGGNSPVQEFTVPSVLSTATISGLKPGVDYTITVYAVTYGDDSNPISINYRTEID | 487 nM |
| 342 (protein, Adnectin) MGHHHHHHGGSVSDVPRDLEVVAATPTSLLISWEYKVHPYRYYRITYGETGGNSPVQEFTVPSVLSTATISGLKPGVDYTITVYAVTYGIDSAPISINYRTEID | > 1000 nM |
| 343 (protein, Adnectin) MGHHHHHHGGSVSDVPRDLEVVAATPTSLLISWEYKVHPYRYYRITYGETGGNSPVQEFTVPSVLSTATISGLKPGVDYTITVYAVTYGDHSAPISINYRTEID | 122 nM |
| 341 (protein, Adnectin) MGHHHHHHGGSVSDVPRDLEVVAATPTSLLISWEYKVHPYRYYRITYGETGGNSPVQSFTVPSVLSTATISGLKPGVDYTITVYAVTYGDDSAPISINYRTEID | > 1000 nM |
| 326 (protein, Adnectin) MGHHHHHHGGSVSDVPRDLEVVAATPTSLLISWEYKVSHRRYYRITYGETGGNSPVQEFTVPSVLSTATISGLKPGVDYTITVYAVTYGDDSAPISINYRTEID | > 1000 nM |
| 336 (protein, Adnectin) MGHHHHHHGGSVSDVPRDLEVVAATPTSLLISWEYKVHPYRYYRITYGETGGNSPVQEFTVPSVLSTATISGLKPGVDYTITVYAVTYGDDSDPISINYRTEID | 171 nM |
| 335 (protein, Adnectin) MGHHHHHHGGSVSDVPRDLEVVAATPTSLLISWEYKVHPYRYYRITYGETGGNSPVQEFTVPSVLSTATISGLKPGVDYTITVYAVTYGDESAPISINYRTEID | 112 nM |
| 323 (protein, Adnectin) MGHHHHHHGGSVSDVPRDLEVVAATPTSLLISWEYKVHPYRYYRITYGETGGNSPVQEFTVPSVLSTATISGLKPGVDYTITVYAVTYGDQSAPISINYRTEID | 126 nM |
| 332 (protein, Adnectin) MGHHHHHHGGSVSDVPRDLEVVAATPTSLLISWEYKVNRWRYYRITYGETGGNSPVQEFTVPSVLSTATISGLKPGVDYTITVYAVTYGDDSAPISINYRTEID | > 1000 nM |
